Measurements published in paper PMC3318979.

Key:
[1] = target: mitochondrial respiratory chain complex I (human) (UniProt Q16795); test: native gel or EMSA
[2] = target: mitochondrial respiratory chain complex III dimer (human) (UniProt P22695); test: native gel or EMSA
UniProt P22695, sequence (P22695 whole entry, looked up, one chain of several): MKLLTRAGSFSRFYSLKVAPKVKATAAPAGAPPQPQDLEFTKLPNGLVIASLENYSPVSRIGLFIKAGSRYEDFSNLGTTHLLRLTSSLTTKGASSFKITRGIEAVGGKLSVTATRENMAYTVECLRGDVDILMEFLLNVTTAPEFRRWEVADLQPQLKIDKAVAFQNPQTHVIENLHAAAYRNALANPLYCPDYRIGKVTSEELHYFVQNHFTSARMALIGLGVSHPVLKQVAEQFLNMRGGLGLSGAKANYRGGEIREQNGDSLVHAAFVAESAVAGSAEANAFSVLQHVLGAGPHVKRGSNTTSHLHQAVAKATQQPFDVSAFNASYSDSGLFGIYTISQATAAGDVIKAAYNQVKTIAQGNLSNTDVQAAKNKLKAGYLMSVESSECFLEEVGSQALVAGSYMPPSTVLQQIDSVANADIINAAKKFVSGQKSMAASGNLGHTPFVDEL

UniProt Q16795, sequence (Q16795 whole entry, looked up, one chain of several): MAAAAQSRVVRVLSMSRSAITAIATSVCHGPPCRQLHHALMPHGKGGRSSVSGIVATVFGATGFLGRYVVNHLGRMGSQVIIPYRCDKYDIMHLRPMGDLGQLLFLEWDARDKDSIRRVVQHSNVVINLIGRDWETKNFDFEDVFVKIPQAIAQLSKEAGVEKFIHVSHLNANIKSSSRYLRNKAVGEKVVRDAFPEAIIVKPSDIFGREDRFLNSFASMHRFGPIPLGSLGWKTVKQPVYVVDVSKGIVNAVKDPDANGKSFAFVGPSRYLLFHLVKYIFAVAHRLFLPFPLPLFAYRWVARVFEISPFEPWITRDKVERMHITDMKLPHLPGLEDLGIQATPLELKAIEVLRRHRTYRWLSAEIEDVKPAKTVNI

Row | percent of the subunits' signal in supercomplex III2+IV [2] [%] | Substance | percent of the subunits' signal in I+III2+IVn supercomplexes [1] [%]
1 |  | mitochondrial respiratory chain complex III dimer (from UniProt P22695 15-453; P47985 79-274) | 50
2 | 1 to 3 | mitochondrial respiratory chain complex IV (from UniProt P00395 1-513; P00403 1-227; P13073 23-169; P20674 42-150; P09669 1-75) | 
